In patent publication US8026218 (UNIVERSITY OF ARIZONA, dated 2011):
Bridge positions count the residues as written; N and C are the ends. Square brackets hold non-standard residues; d marks the D form. Ends that are not written are not given here. * marks the point of attachment. NMeBn(CF3)2 = C-terminal N-methyl bis(trifluoromethyl)benzyl amide; NH(3,5-(CF3)2-benzyl) = FC(F)(F)c1cc(CN*)cc(C(F)(F)F)c1; OBzl(3,5-(CF3)2) = FC(F)(F)c1cc(CO*)cc(C(F)(F)F)c1; OBn(OMe)2 = C-terminal OBn(OMe)2 ester; OBn(CF3)2 = C-terminal Bn(CF3)2 ester; Dmt = Cc1cc(O)cc(C)c1C[C@H](N)C(=O)O; NMe(benzyl) = CN(Cc1ccccc1)*; Aib = CC(C)(N)C(=O)O; NHBn = c1ccc(CN*)cc1; OBn = c1ccc(CO*)cc1

B1: TyrDAlaGlyPheMetAibLeuTrpOBn(CF3)2 (TY022) (peptide)
peptide: Y[dA]GFM[Aib]LW-{OBn(CF3)2}
B2: DmtDAlaGlyPheMetProLeuTrpNHBn(CF3)2 (TY032) (peptide)
peptide: [Dmt][dA]GFMPLW-{NH(3,5-(CF3)2-benzyl)}
B3: DmtDAlaGlyPheMetProLeuTrpOBn(CF3)2 (TY033) (peptide)
peptide: [Dmt][dA]GFMPLW-{OBzl(3,5-(CF3)2)}
B4: TyrDAlaGlyPheMetProLeuTrpNHBn(CF3)2 (TY027) (peptide)
peptide: Y[dA]GFMPLW-{NH(3,5-(CF3)2-benzyl)}
B5: TyrDAlaGlyPheNleProLeuTrpOBn(CF3)2 (TY018) (peptide)
peptide: YAGFXPLW
modifications: D-Ala at 2; Nle (norleucine) at 5 (X); C-terminal O-3,5-Bn(CF3)2 ester
B6: TyrDAlaGlyPheMet(O)ProLeuTrpOBn(CF3)2 (TY023) (peptide)
peptide: YAGFMPLW
modifications: D-Ala at 2; Met(O) (oxidized methionine) at 5; C-terminal O-3,5-Bn(CF3)2 ester
B7: TyrDAlaGlyPheNleProLeuTrpNHBn(CF3)2 (TY045) (peptide)
peptide: YAGFXPLW
modifications: D-Ala at 2; Nle at 5 (X); C-terminal NH-Bn(CF3)2 amide
B8: TyrDAlaGlyPheMetProLeuTrpNMeBn (TY026) (peptide)
peptide: Y[dA]GFMPLW-{NMe(benzyl)}
B9: TyrDAlaGlyPheMetProLeuTrpNHBn (TY025) (peptide)
peptide: Y[dA]GFMPLW-NHBn
B10: TyrDAlaGlyPheMetProLeuTrpOBn (TY029) (peptide)
peptide: Y[dA]GFMPLW-OBn
B11: TyrDAlaGlyPheMetProLeuTrpNMeBn(CF3)2 (TY028) (peptide)
peptide: Y[dA]GFMPLW-{NMeBn(CF3)2}
B12: TyrDAlaGlyPheMetProLeuTrpOBn(OMe)2 (TY030) (peptide)
peptide: Y[dA]GFMPLW-{OBn(OMe)2}
B13: TyrDAlaGlyPheMetProLeuTrpOBn(CF3)2 (TY005) (peptide)
peptide: Y[dA]GFMPLW-{OBzl(3,5-(CF3)2)}
B14: Tyr[DCysGlyPheCys]ProLeuTrpNHBn(CF3)2 (TY039) (peptide)
peptide: Y[dC]GFCPLW-{NH(3,5-(CF3)2-benzyl)}
modifications: disulfide 2-5
notes: also called [D-Cys2, Cys5]
B15: TyrDAlaGlyPheMetAlaLeuTrpOBn(CF3)2 (TY020) (peptide)
peptide: Y[dA]GFMALW-{OBzl(3,5-(CF3)2)}
B16: TyrDAlaGlyPheMetProLeuTrpOH (TY043) (peptide)
peptide: Y[dA]GFMPLW-OH

What follows are binders tested against T1, human δ opioid receptor (human, UniProt P41143 1-372) (assay: cell-based or functional assay).
T1 sequence (P41143 whole entry, stated change not applied): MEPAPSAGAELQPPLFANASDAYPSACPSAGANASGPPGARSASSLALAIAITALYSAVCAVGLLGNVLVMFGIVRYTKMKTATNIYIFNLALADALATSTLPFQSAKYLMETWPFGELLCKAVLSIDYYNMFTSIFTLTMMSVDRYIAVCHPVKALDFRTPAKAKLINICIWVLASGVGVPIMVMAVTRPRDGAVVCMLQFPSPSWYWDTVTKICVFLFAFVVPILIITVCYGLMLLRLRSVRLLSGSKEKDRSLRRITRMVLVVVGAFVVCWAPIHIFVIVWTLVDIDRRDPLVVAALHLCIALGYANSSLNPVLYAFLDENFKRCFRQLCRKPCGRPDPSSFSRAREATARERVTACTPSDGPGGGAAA

| Binder | GTP binding hDOR Emax [%] | GTP binding hDOR EC50 [nM] |
| --- | --- | --- |
| B1 | 28 | – |
| B2 | 24 | 1.2 |
| B3 | 200 | 0.73 |
| B4 | 58 | 8.6 |
| B5 | 131 | 4 |
| B6 | 52.8 | – |
| B7 | 125 | 5 |
| B8 | 93 | 8.9 |
| B9 | 51.7 | 2.6 |
| B10 | 98 | 3.4 |
| B11 | 59 | 12.9 |
| B12 | 61 | 0.8 |
| B13 | 47.6 | 2.9 |
| B14 | 37 | 50.9 |
| B15 | 26.4 | – |
| B16 | 62 | 0.51 |

The binders below were run against rat µ opioid receptor (rat, UniProt P33535 1-398) (assay: cell-based or functional assay).
rat µ opioid receptor, sequence (P33535 whole entry): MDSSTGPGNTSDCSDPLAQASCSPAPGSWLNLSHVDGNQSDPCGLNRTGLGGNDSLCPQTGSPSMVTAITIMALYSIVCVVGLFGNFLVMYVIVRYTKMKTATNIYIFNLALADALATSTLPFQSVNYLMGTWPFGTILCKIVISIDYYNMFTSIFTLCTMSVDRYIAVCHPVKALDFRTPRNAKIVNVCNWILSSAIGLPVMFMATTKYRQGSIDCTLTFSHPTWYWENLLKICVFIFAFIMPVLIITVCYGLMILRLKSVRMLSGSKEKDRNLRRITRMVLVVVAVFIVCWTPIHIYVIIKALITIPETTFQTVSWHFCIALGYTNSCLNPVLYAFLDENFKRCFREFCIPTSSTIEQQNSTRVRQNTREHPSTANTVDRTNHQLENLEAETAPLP

| Binder | GTP binding rMOR EC50 [nM] | GTP binding rMOR Emax [%] |
| --- | --- | --- |
| B1 | 100 | 32 |
| B2 | 62 | 74 |
| B9 | – | 46.8 |
| B10 | – | 133 |
| B13 | – | 45.6 |
| B14 | 118 | 20 |
| B15 | – | 51.4 |

What follows are binders tested against µ opioid receptor of the guinea pig isolated ileum (guinea pig, UniProt P97266 1-98) (assay: cell-based or functional assay).
µ opioid receptor of the guinea pig isolated ileum, sequence (P97266 whole entry): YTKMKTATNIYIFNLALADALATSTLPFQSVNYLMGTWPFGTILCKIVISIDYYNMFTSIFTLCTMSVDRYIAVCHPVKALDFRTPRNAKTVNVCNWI

| Binder | GPI/LMMP opioid(mu) agonist IC50 |
| --- | --- |
| B2 | 18.6 nM |
| B3 | 100 nM |
| B4 | 488 nM |
| B5 | 372 nM |
| B6 | 154 nM |
| B7 | 463 nM |
| B9 | 61.1 nM |
| B10 | 22.2 nM |
| B11 | 971 nM |
| B13 | 359 nM |
| B14 | 10.1 % at 1 uM |
| B16 | 272 nM |

The binders below were run against guinea pig NK1 receptor (guinea pig, UniProt P30547 1-407) (assay: cell-based or functional assay).
guinea pig NK1 receptor, sequence (P30547 whole entry): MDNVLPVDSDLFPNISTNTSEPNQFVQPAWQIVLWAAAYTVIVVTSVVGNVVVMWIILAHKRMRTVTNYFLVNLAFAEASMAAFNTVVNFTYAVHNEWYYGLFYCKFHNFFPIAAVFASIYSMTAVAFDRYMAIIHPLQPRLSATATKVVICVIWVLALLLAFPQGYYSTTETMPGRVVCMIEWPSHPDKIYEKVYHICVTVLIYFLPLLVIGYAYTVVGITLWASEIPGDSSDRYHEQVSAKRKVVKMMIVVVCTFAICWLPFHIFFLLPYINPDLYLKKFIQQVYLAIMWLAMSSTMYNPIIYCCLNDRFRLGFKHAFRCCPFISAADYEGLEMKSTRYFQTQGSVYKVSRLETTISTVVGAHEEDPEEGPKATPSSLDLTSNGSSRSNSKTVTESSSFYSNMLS

| Binder | GPI/LMMP SP antagonist Ke [nM] |
| --- | --- |
| B2 | 7.5 |
| B3 | 24.5 |
| B5 | 7.93 |
| B6 | 7.8 |
| B7 | 40.8 |
| B9 | 9.9 |
| B10 | 5.1 |
| B12 | 4.1 |
| B13 | 24.7 |
| B14 | 434 |

What follows are binders tested against T1, human δ opioid receptor (assay: radioligand competition vs [3H]DPDPE, membranes of hDOR cells).

| Binder | Ki [nM] |
| --- | --- |
| B2 | 0.12 |
| B3 | 0.22 |
| B5 | 1.8 |
| B6 | 5.08 |
| B7 | 1 |
| B8 | 0.32 |
| B9 | 0.44 |
| B11 | 2.15 |
| B12 | 0.93 |
| B13 | 2.8 |
| B14 | 10.7 |
| B16 | 1.1 |

These binders were tested against T2, human NK1 receptor (human, UniProt P25103 1-407) (assay: radioligand competition vs [3H]substance P, membranes of hNK1 CHO cells).
T2 construct: whole, on cells; Used as membrane preparations of transfected CHO cells; also called hNK1; human neurokinin-1 receptor
T2 sequence (P25103 whole entry): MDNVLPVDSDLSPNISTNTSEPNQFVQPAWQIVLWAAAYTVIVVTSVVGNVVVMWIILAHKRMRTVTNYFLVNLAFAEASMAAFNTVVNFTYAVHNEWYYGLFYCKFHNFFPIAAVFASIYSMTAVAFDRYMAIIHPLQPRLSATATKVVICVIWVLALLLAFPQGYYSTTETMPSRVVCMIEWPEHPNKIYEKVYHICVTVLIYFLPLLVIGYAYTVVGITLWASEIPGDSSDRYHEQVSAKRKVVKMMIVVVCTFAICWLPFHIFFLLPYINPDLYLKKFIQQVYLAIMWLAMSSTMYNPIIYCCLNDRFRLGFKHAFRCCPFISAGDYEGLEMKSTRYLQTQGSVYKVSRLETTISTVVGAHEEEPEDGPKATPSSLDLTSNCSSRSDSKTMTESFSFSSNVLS

| Binder | Ki [nM] |
| --- | --- |
| B2 | 0.008 |
| B3 | 1.2 |
| B5 | 0.14 |
| B6 | 0.00015 |
| B7 | 0.0028 |

What follows are binders tested against T3, rat NK1 receptor (rat, UniProt P14600 1-407) (assay: radioligand competition vs [3H]substance P, membranes of rNK1 CHO cells).
T3 construct: whole, on cells; Used as membrane preparations of transfected CHO cells; also called rNK1; rat neurokinin-1 receptor
T3 sequence (P14600 whole entry): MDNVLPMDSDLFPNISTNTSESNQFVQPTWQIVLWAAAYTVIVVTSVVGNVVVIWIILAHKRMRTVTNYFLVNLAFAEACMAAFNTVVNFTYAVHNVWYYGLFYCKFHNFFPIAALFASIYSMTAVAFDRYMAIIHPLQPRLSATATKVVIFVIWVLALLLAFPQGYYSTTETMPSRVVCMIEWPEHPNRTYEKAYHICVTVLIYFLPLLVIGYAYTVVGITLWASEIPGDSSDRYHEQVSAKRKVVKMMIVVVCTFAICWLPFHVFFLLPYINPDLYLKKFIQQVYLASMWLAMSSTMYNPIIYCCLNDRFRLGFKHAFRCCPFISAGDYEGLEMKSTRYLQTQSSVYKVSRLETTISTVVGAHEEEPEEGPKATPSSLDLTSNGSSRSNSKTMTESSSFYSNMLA

| Binder | Ki [nM] |
| --- | --- |
| B2 | 2.3 |
| B3 | 0.96 |
| B4 | 7.27 |
| B6 | 0.2 |
| B8 | 44.5 |
| B10 | 20.3 |
| B11 | 2.01 |
| B12 | 9.53 |
| B13 | 0.29 |
| B14 | 556 |
| B16 | 9850 |
